Measurements published in a protein production outcome set (Wang et al. 2014).

Experiment: label from the status in PepcDB records
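Further: failed if final PepcDB status was selected cloned or expressed and not failed if soluble or beyond.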

Sequence	protein production
MHPFRWQRSRQRSSALSFLKKAFYQIPVIGWLVKDAAHGSPEAPYFFLFNAVVVGAALIYTFGYPLVITVAVAGAFAGIAGLVVLTAGDAFDKRAKQPATDVRRAKTATVRPLKKAA	failed
MSLRPRVLLVEDSTSLAILYKQYVKDEPYDIFHVETGRDAIQFIERSKPQLIILDLKLPDMSGEDVLDWINQNDIPTSVIIATAHGSVDLAVNLIQKGAEDFLEKPINADRLKTSVALHLKRAKLEDLVEGHHHHHH	not failed
LRESKRFIEQVISHSPQLLYIFEPTTGSNIYLNGQSVDILGYTPEEIKARGVKFFLDVLHPDDLYLLERNLNYWQNAADGEVLTTEWRMKHKNGSWRWLRSRDVVFARDENHFPCKVLGTTQDITDSKLAELE	failed
MTHKVAFSFADGKTLFFPVKANEILLDAALRNGIKIPLDCREGVCGTCQGRCESGQYSQDYVDEEALSPQDLEQRKMLTCQTRVQSDAAFYFDFDSSLCHSADPVQLQGSVIDVRQVSESTAILHLDLGGHQAPLDFLPGQYARLSIPGTGTSRAYSFANRPAADNQLQFLIRLLPDGVMSNYIRERCLVGDTLQLEAPLGAFYLRQISRPLILVAGGTGLSALLAMLEQIVEQGCQQPVHLYYGVRHSRDLCELERIQAHGERLADFRFTPVISDANPDWPGKRGYISEHFDSSELRDQDTDMYVCGPPPMVDSIRIWLQEQQLNRVQLYYERFTESNI	failed
MKNLKNKHFALLYLVLFLVLAKLSPFIITALIMGLYLSIIIDYVARFLEVFIKKPRVLPRVISNVLVFLTIAYSAVNFFPVIVREAQKVFSEIDRIRSGLENIDIPGWLSSILSSISASFSEGALSLVNKIVGYVPSFITAAILIVITAFIVSSLKRLIKENVHYLFPTNPSDGKEFLKTTYTEFERFVGGQVLVAIFVGLFVGFGAFIFKIPSAFFLGMLAFVTDFVPYLGVVISAIPLLMLAFSVHGLSGLLIGTIILVAANQLEMWVLAPKIQSNTLNVHWFIILIMILILGDLFSFGGVLIALPFLIFLKNFWKQYVMGG	failed
MYPSSSPGHRQYFLGVKSSLPLLWLMVFPALIGGVLNINPVQAQGTPYIPPPITPPPLSPSENPFDPSLFPTDPLIPSGETLTPLQRRRLIEALDALEAEALVLDQAGQGDQAFEVRYRSLRGRQRLGDLAEVEALGRIGAIAWEQGRNQDVMAIGQRLEDLQLSLTKDKAMSPELLTAFAKAYGQLHSLDSAIAVYQQMRREAQQQGDYRRENQALSMLGELYLAKFNYPAAAEVYETLLARATNARNSYYEGIYLQKLGEIYQQSAQPDNAIRIKEQLVQRRLQDGKPELVPDIQIAIGDHYLELEQPENASQAYQKAYTLAWSIKQLSTAAIALDKLGDLYLFSEQPNYALQIYKQLLQVQQQSYNYYGMMITYEKIAQLYIDAQQTSAALTAYQQALSLARSLKYSTKENNILNQIQTISGGTGS	failed
MVFLVPFDGSPLADAALNRAVTYAKALDEDVVAVAFIPTGADYAERRRRVDPTEDFAAETAADDLRRKIEEATDDSELRYDDVSAHSTSELSTTIRQTARDVDANVVFLGSDDTEDIVVPIGEVTDGEDYDVHIVRRT	failed
MGWEFFSLETLQELARQYGYGAVFFGIALENAGIPIPGETITLLGGFLAGSGDLSYGGVLIAAIAGAVLGDSCGYWVGRWGGWPLLTRAAQLFNIPQEKLDQARHKFSQNGAAAVFFGRFVTLLRIFAGPMAGIVRMPYGKFLLYNIGGASVWAAITVSLAYFLGRVVTIEQIIAWTTQFSWFALAAVVGMVGIYFVFHFLQKRFDQTIESTIGDRPQ	failed
SDDDNPTVDPANIDYTPENASSWHNYMRNVAALLKTDATNLYNAWNSSYKGGESYASLFKAHSGSPYASALSCVEEIVDKCAEIANEVGTAKIGDPYNLYKAGNTEEALYAVESWYSWHSRDDYTNNIYSIRNAYYGSLDGNINANSLSTVIAGANSSLDTKIKNAIQKAAKAIQDIPQPFRNHIPSNETVAAMDACAELESILKNDLKSYIANNSNNINTDAVLNPVVTQYVDAVVVPTYKSLKEKNDALYNAVIVLADNPSNSAFETACDAWITAREPWEKSEAFLFGPVDEMGLDPNMDSWPLDQNAIVQILNSQSWSDLEWSEGDDEAAVESAQNVRGFHTLEFLLYKNGEPRKVQ	not failed
MASRSRRPERRQEPLSRERIVGAAVELLDTVGERGLTFRALAERLATGPGAIYWHITGKAELLGAATDAVVTAAVTAGPTGAADSPQDAVRAVALGLWDATEAHPWLATQLATQLSRTPWGTVAPRIFESLGRQVQAMGVPEAHWFTASSALMHYILGAAGQNAANSASAGPVGADVDRDEFLDTVSTAWEGLDPDAYPFTRAVADQVRGHDDREQFLAGITLVLTGITALHRPGR	not failed
MHNKKWDLRIICAHAFTILIWGSAFPAIRMGLASYTPEHLTLLRLLIASFILLLFSFIYKLRIPDLKDIPAIFIFGALGFTFYHIALNYGEKTVNAGSASLIVSVTPIVTAILASIFLNEKMKLNGWIGGGISFIGIALISFSQGDAIQLNSGGFFILLAAISESLYFVFQTSYLKKYGFLPFTIYTILSSTVCMLIFFPGMYTEILAAPLEVNMSVIYLGLFPTVLPYIALAYIISHSGAAEATSSLYLTPVTACFVAWIWLGEVPTFVSIIGGGITILGILIVHIPVLRKEKHRNLANNQSV	failed
MVLLIVDGIIVAISAIAFSPDTVMYSILSLYVVSLTIDKMMVGLNSSRNLLIISQKSDQILNYITNGADRGATKIPVLGGHTGHSQNMIMTTLSTHEVPKVQEEIQKIDETAFIVIIPASTVMGRGFSLQKDYKSVPNDFINPL	failed
MNHLISVGALESFLVAISVLFLGHFINAKLPILKKFNIPEPIVGGLIVACIITALHFNGVDLEFDLPLQNTFMLMFFATVGLAANYTQLMKGGAKVFIFLAVASFYIIIQNGVGVSLAAALGLDPLMGLIAGSITLSGGHGTGAAWSQTFQDVYGLNNVLEIAMASATFGLIIGGIIGSPVAQRLVEKHGIESEYGRGGRDAKTHEKFPELVTYNEYEEDKVTAKKVVEKLFFLLICVTGAKYVEQWVSTYEISWLMIPDFVYALFIGVIITNFLEVTKIRKLDAETVDMLGTVSLSLFLAMALMSLKLWNIFDLAIPFLVILAIQSVILAIFTYYVTFKVMGSNYDAAVISGGHCGFGLGATPTAVMNMGSIVNRFGPSPQAFMVVPIVGAFFIDIVNLIILQGYISFLG	failed
DGDIGQLSKTFNYMVSELKSRRNELIAVRDQIDERRRFSEAVLSGVTAGVAGIDDNGNITIINRSIETMFDIRSEHVIGHSLLSLSAEIDQVFQFARSLGRKNHREQVTLSVAGQERVCNVQITMEKDDG	failed
MWTDSREALSDLQLGECERVLDVGCGTGELTRVLREETDGTVVGLDADTDLLAAAGDPTVCGDATQLPFDDDSFDLVVCQALLINLPDPEVAVREFARVATDRVAAIEPNNAAVTVESTVDAEPMLARRARRLFLDGVRTDVTLGSDAADVFSDAELTVVSTTQYDQEQQIEPPYDDAAMQAARRKATGTGLAHDRETILNGEATPAEYDALRERWRSMGRDVVEQMQDEAYERHETVPFFVTVGEIP	failed
MDKRIATIILSIVNIIGIFEFPLYESFIGFFFISSALSILYESQLSLIVPTVLFASLVLLHIITIQLQKLIILSILMLISIIGKNNKWIYSILITLAPGLIINNLYLLLIVLALLIPLLIKLGGEPRAIIISGILYLIYSGIIFPNNEALANQISQISYFYLMFGIIGIIVEDKRITRITLRKILPYLSFIPASFASIMLGYPSDSSFIYWSASSFYFSHLYLPWIYEIGYNSNQHLIASWFLAYLLTLIIKNPLITAEVFLGIFTFLSGLISYYVFKRLNLKYPLLFSLLYQINIFNPIISHSISVFSYAFLPLVLFFAYNKNKVLYSILTLTAASSIPIFISTLVIPLVYRRYYFLLYALGVNAFWLIPFLIFGYDKFTFNVSNIEILISIILVSISVLLYQLRFKNIEILYMIFISFVLLILGINTGPLILLATILTLGSLRDISILYLTLLSGLIILSATSFSYGVISGYANTTFYTYNLPNLPKPGEYGFGITTLVNDLNLTASGMPTESISYNVRYFIYNSRVIENPLYFGFPIPAIPNYTPQLTFSYIYSNSSVKVIYSPFNKPLGLMVYSNVTPSKISIVFPTRIENISGIKGLVKNYTIQIITNTSLTIIGGKVTVDNKSIFSSYYKPKIVTSIMIGEITEVIDSNYSIYLPIHESLTINGKVVNHPIILPPGKYTIVISDEKIEYVSYASIFLTIVSLVLLIRRGMKV	failed
GPGSMYRSRPEPVQGHLFTYYKDPYCKIPVFMMNMDARRCVLWVGGQTESLLSFDYFTNLAEELQGDWAFVQVEVPSGKIGSGPQDHAHDAEDVDDLIGILLRDHCMNEVALFATSTGTQLVFELLENSAHKSSITRVILHGVVCDPENPLFTPEGCAARKEHVEKLMAEGRGEDSLAMLKHYDIPITPARLAGGGFPTLQEAVWNPCIRKEFDVLRRSVGVIKVPLLLMLAHNVQYKPSDEEVGTVLEGVRDHTGCNRVTVSYFNDTCDELRRVLKAAESEHVAAILQFLADEDEFRTETEKNNRIKAAEDEKKRKSVLQVSSFAQAASSVKAS	not failed
HCSADLVLVEPTPLAVLDRIALVTDNGPFDPRKVELANGLAAAAGASLVLGHAVPADATEDQRATVRTYHEDLMGLCTVPVESNIVGTTTPAAMARAVSAADLVVVESDAAWWARLLDNREPQRIAGAFGGPAIVVRPQQAEGPSPVRRLLERVAF	failed
MMRRQRDEQQSRVFYDLSSLVLNLLRSPPMPISLPDHFPDPPARIRPPFSSHRFSSSSPSLAHISPSGFASLLLGISVALMLCGSVTFFIGFLLMPWVLALILVFYVAGIVSAISMVGRSILCYVLTPPSPSGKEISEWKLL	failed
MVEPDRVFFVRVMREWISRFTGKIIENFEIHLSQPMGFAGDIMSLTEFATSRQVKNLVLDFSDPIQRNLSQAQQIIRDGLLRCRYPQKNELDVLQDCDDPMALHVSMKTRHLVMKTNMHANDFVGISIFLNSCPELESLTFDLVTSSRFVRAPSPLVIDPVSHWLTSKSYECLEKTLKVVKITKFRGSSNELHMLQYLLRTGCVMERVDLYEAEGLNHNQKRWVLAGVEEVQQNFKRASRHLRITLHNA	not failed
MKVKSPLEVYNYLPRTNCGECGFDTCMSFAAHILDRSVTPLDCKPLVRDAEKDPKVKKKLEELLELTAPEIAEVVIGVGENAVKIGGEEVLHRHELTFFNPTGFFYDVWDTMDDKALEERCDRVVSYKKFYVGNFLTLDGFAVRCTSGDPKRYREVVKKVASYGKPLILVALDSECMKAALEEVADQRPLMYAATEGNWKEFLKLALEYKVPVTLRAKDLDLLKSMAVTFKQAGVKDIVLDPVTEPLGEGLKGTFERVIQLRRTAIAGQDKDVAYPIMITPIAAWLIEGDDVTKSYWEAVIASIFIVKYGDVMIFRSIDQHVVMPTITLRFNIYTDPRTPVQVEPGLRAINDPGPDDPVFITTNFALTYYTVESDLTSGGIKGWLLVLNTEGLGVEVSVAGGQFTASKVKELIEETKIEEKVNHRYLVIPGLAARLQGAIEDETGWKVLVGPMDSGRIKGWLEKNWPPKE	not failed
SKDHTEFMVHLNNRIILRRWSIFKEFLHSEELKNTPASVEAELAVTAILEKLNQQIPPRPFQTHSSTTSAKQSTATIHNPQRTYCVGDQLNVLLVAKDYFGNRKEYGGDFLRARIFSPAMKAGTSGKVTDFNNGTYLVSFTLFWEGPVSLSILLMHPSEGVSALWRARNRGYGKIIFTGQFLNGTSPVLTECGLTLNTSAELCQYLDARDHEAFYCLKLPGVPCEALTHMTSKNSNISYLSLEEKLLFRRFNIGVEVVKNLSIVVSLCNNKTNKKKKKCQIGMETPSPGGYTLKGRWITAHCEQNEFRAIKDINNCLTRKLIYLMGDSTLRQWIYYLPKVVKTLKYFDRHGAGPFKTHILLDTERHIFVQWKKHSHPFVTNKLFSMKDDNYIPREIDQVAGDSGTAIVISFGQHFRPFPINVFIRRAINVKNAIERLFLRSPETKVIIKTENIREINEHVEIFSDFHGSIQNLIIRDIFRDLNVGIIDAWDMTVAYRSEDVHPPESVIESQIGMFLNYIC	failed
